This is an account of results in article PMC10696041.

First the molecules themselves.
B1: MBP-CUB1CUB2 domains of PCPE-2, WT [human] / bone morphogenetic protein-1 [human] (parent)
chain 1: QSPERPVFTCGGILTGESGFIGSEGFPGVYPPNSKCTWKITVPEGKVVVLNFRFIDLESDNLCRYDFVDVYNGHANGQRIGRFCGTFRPGALVSSGNKMMVQMISDANTAGNGFMAMFSAAEPNERGDQYCGGLLDRPSGSFKTPNWPDRDYPAGVTCVWHIVAPKNQLIELKFEKFDVERDNYCRYDYVAVFNGGEVNDARRIGKYCGDSPPAPIVSERNELLIQFLSDLSLTADGFIGHYIFRPK
chain 2: AATSRPERVWPDGVIPFVIGGNFTGSQRAVFRQAMRHWEKHTCVTFLERTDEDSYIVFTYRPCGCCSYVGRRGGGPQAISIGKNCDKFGIVVHELGHVVGFWHEHTRPDRDRHVSIVRENIQPGQEYNFLKMEPQEVESLGETYDFDSIMHYARNTFSRGIFLDTIVPKYEVNGVKPPIGQRTRLSKGDIAQARKLYKCPACGETLQDSTGNFSSPEYPNGYSAHMHCVWRISVTPGEKIILNFTSLDLYRSRLCWYDYVEVRDGFWRKAPLRGRFCGSKLPEPIVSTDSRLWVEFRSSSNWVGKGFFAVYEAICGGDVKKDYGHIQSPNYPDDYRPSKVCIWRIQVSEGFHVGLTFQSFEIERHDSCAYDYLEVRDGHSESSTLIGRYCGYEKPDDIKSTSSRLWLKFVSDGSINKAGFAVNFFKEVDECSRPNRGGCEQRCLNTLGSYKCSCDPGYELAPDKRRCEAACGGFLTKLNGSITSPGWPKEYPPNKNCIWQLVAPTQYRISLQFDFFETEGNDVCKYDFVEVRSGLTADSKLHGKFCGSEKPEVITSQYNNMRVEFKSDNTVSKKGFKAHFFSEKRPALQPPRGRPHQLKFRVQKRNRTPQ

Variants of B1 are the subject of one experiment. Put plainly: SPR. The settings on record: with bone morphogenetic protein-1 [human]; 50 nM MBP-CUB1CUB2; immobilized BMP-1 (1302 RU); parent: 17; read off a plot.
For chain 1 K46A E197A R220A, the response is 7.2 RU. The same measure, in the same setting: the figure for chain 1 F87A is 16 RU; for chain 1 R150A it is 18 RU.

The experiment is the same for the next values; noted with them: with bone morphogenetic protein-1 [human]; 50 nM MBP-CUB1CUB2; immobilized BMP-1 (1302 and 1492 RU); parent: 100; read off a plot.
Turning to chain 1 K46A E197A R220A, the percent of parent (% binding / WT) amounted to 40.
